System: p-tau (phosphorylated tau protein at Ser202, Thr205 residues)
Assay: p-tau (AT8) expression in cultured cortical neurons under oxidative stress
Format: cell-based, mouse
Parameters: key to Reduction of the % of p-tau+ somas: a favorable response, synonymous with a decrease in the number of p-tau+ cell bodies; ++: a favorable response, synonymous with a decrease in the number of p-tau+ cell bodies; +++=reference level; an unfavorable response is represented by a sign “−”, synonymous with an elevation of the number of p-tau+ cell bodies
Conditions: compounds 3 μM, APO 100 μg/mL; mouse cortical cultures exposed div 7-11 to DF12i
Experimental: A culture model of cortical neurons from mouse embryonic brain was used, in which neuronal cells were subjected to a maturation step until day in vitro (div) 7, before being gradually exposed to phenol red formulated DMEM/Nutrient mixture F12 Ham supplemented with 20 μg/mL of insulin, and 2 μM of the NMDA receptor blocker MK-801 (DF12i).
Precisely, after 4 days of exposure to DF12i, between 10-15% of surviving neurons show a very strong AT8 immunosignal in their somas while only 1 to 1.5% of neuronal cell bodies are found immunopositive under conditions where oxidative stress is repressed by treatment with bovine apotransferrin (APO; 100 µg/mL, Sigma Aldrich), a glycoprotein with iron chelating properties. Likewise, overexpression of p-tau in cortical cell bodies is reduced by the two non-antibiotic tetracyclines compound of formula (C) ([…]) and compound of formula (Ib) ([…]): see the following Table: […]

B1: apotransferrin (protein, UniProt Q29443 20-704, looked up)
Serotransferrin: DPERTVRWCTISTHEANKCASFRENVLRILESGPFVSCVKKTSHMDCIKAISNNEADAVTLDGGLVYEAGLKPNNLKPVVAEFHGTKDNPQTHYYAVAVVKKDTDFKLNELRGKKSCHTGLGRSAGWNIPMAKLYKELPDPQESIQRAAANFFSASCVPCADQSSFPKLCQLCAGKGTDKCACSNHEPYFGYSGAFKCLMEGAGDVAFVKHSTVFDNLPNPEDRKNYELLCGDNTRKSVDDYQECYLAMVPSHAVVARTVGGKEDVIWELLNHAQEHFGKDKPDNFQLFQSPHGKDLLFKDSADGFLKIPSKMDFELYLGYEYVTALQNLRESKPPDSSKDECMVKWCAIGHQERTKCDRWSGFSGGAIECETAENTEECIAKIMKGEADAMSLDGGYLYIAGKCGLVPVLAENYKTEGESCKNTPEKGYLAVAVVKTSDANINWNNLKDKKSCHTAVDRTAGWNIPMGLLYSKINNCKFDEFFSAGCAPGSPRNSSLCALCIGSEKGTGKECVPNSNERYYGYTGAFRCLVEKGDVAFVKDQTVIQNTDGNNNEAWAKNLKKENFEVLCKDGTRKPVTDAENCHLARGPNHAVVSRKDKATCVEKILNKQQDDFGKSVTDCTSNFCLFQSNSKDLLFRDDTKCLASIAKKTYDSYLGDDYVRAMTNLRQCSTSKLLEACTFHKP
modifications: iron-free apo form
Reduction of the % of p-tau+ somas: +++

Reference: US20260021119A1, “TETRACYCLINE DERIVATIVES” (ICM (INSTITUT DU CERVEAU ET DE LA MOELLE ÉPINIÈRE), priority 2022, published 2026)
